Measurements: patent publication US8563503B2, “Antibiotic, its nucleotide sequence, methods of construction and uses thereof” (Protein Design Lab. Ltd., priority 2011, dated 2013)
“Also recorded” adds a separate entry of the source.

Columns and labels:
[1] = system: Staphylococcus aureus ATCC 29213; assay: MIC against the infecting strain (Table 2); format: cell-based; details: ATCC29213
Procedure, shortened: (§1)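 MICs by agar doubling dilution on Mueller–Hinton agar (Enterococcus faecalis on MH supplemented with 5–10% defibrinated rabbit blood, 5% CO2). Inoculum 10^5 CFU/ml per spot by multipoint inoculator; plates read after 18–24 h at 37 °C. MIC is the lowest drug concentration with no growth.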

E. coli 02-1-65 [2] = assay: MIC against the infecting strain (Table 2); format: cell-based; details: E. coli 02-1-65
Procedure, shortened: as §1

[3] = system: Staphylococcus aureus MRSA BAA-42; assay: MIC against the infecting strain (Table 2); format: cell-based; details: Staphylococcus aureus MRSA BAA-42
Procedure, shortened: as §1

[4] = system: Staphylococcus aureus (MSSA); assay: MIC by Agar Doubling Dilution Method, clinical isolates; format: cell-based; details: MSSA clinical strains
Procedure, shortened: as §1

[5] = system: Staphylococcus epidermidis (MRSE); assay: as above; format: cell-based; details: MRSE clinical strains
Procedure, shortened: as §1

Baumanii = assay: as above; format: cell-based; details: Baumanii clinical strains
Procedure, shortened: as §1

[6] = system: Staphylococcus aureus (MRSA); assay: as above; format: cell-based
Procedure, shortened: as §1

E. coli = assay: as above; format: cell-based; details: E. coli clinical strains
Procedure, shortened: as §1

[7] = system: Staphylococcus epidermidis (MSSE strain); assay: as above; format: cell-based; details: MSSE clinical strains
Procedure, shortened: as §1

Enterococcus ATCC 700802 [8] = assay: MIC against the infecting strain (Table 2); format: cell-based, Enterococcus faecalis; details: ATCC700802
Procedure, shortened: as §1

[9] = system: Pseudomonas aeruginosa Standard Strain (ATCC 27853); assay: Bacteria growth curve (A595 nm cloudiness), Pseudomonas aeruginosa; format: cell-based; details: drug 5 μg/ml, 37° C., A595 nm per hour
Experimental: The experimental bacterium was Pseudomonas aeruginosa Standard Strain (ATCC 27853) purchased from the Center for General Microorganism of the Administration (CGMCC). 5 microliter bacteria solution (10^6 CFU/ml level bacterium amount) was added into 10 ml MH culture solution. Seven groups are prepared. 0.3 M NaCl+50 mM boric acid buffer fluid which amount was identical to amount of antibiosis polypeptide liquid in the experimental group was added as control in the first group, 5 μg/ml wild-type colicin Ia was added in the second group, 5 μg/ml PMC-SA1 was added in the third group, and 5 μg/ml PMC-PA was added in the fourth group.
Liquid in the above groups was put into 100 ml conical flask, 200 rpm, grew at 37° C. 100 μl was sampled per hour, and added onto 96-hole Elisa Plate to measure bacteria grown cloudiness by spectrophotometer (A595 nm) color comparison. The bacteria growth curve was drawn up to compare the bacteriostasis efficacy of antibiosis polypeptide.

[10] = system: methicillin-resistant Staphylococcus aureus (ATCC BAA-42); assay: Transmission electron microscope observation of bactericidal effect; format: cell-based
Experimental: Transmission Electron Microscope Observations of the Bactericidal Effect of the Novel Antibiotic PMC-SA1 on Methicillin-Resistant Staphylococcus aureus (ATCC BAA-42) (Dyed by 1% Phospho-Wolframic Acid, Magnified by 25,000 Fold)
Culture solution: 1% tryptone, 1% NaCl, 0.5% yeast extract, 0.5% glucose, 0.1% K2HPO4.
Con: control group, the bacterium was added to the above culture solution and proper amount of 0.3 M NaCl+50 mM boric acid buffer solution, 200 rpm, grew at 37° C. for 2 hours, and the bacterial appearance was still regular;
PMC: the bacterium was added to the above culture solution with 10 μg/ml PMC-SA1 for 0.5 hours.

[11] = system: Staphylococcus aureus ATCC 29213; assay: Protection test in vivo (intravenous injection) of infected mice; set-up: species or system Kungming mice; details: mice, infected with 4.6 × 10^5 cfu/ml i.p., drug once intravenous
Procedure, shortened: (§2)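 Mice got a lethal intraperitoneal bacterial challenge, then one intravenous dose of drug in sterile water at 10, 5 or 2.5 mg/kg. Survival was checked every 24 h for 7–14 days, with death counted as the positive result.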

E. coli 02-1-65 [12] = assay: as above; set-up: species or system Kungming mice; details: mice, infected with 3.8 × 10^5 cfu/ml i.p., drug once intravenous
Procedure, shortened: as §2

[13] = system: Staphylococcus aureus MRSA BAA-42; assay: as above; set-up: species or system Kungming mice
Procedure, shortened: as §2

Enterococcus ATCC 700802 [14] = assay: as above; set-up: species or system Kungming mice; details: mice, infected with 7.0 × 10^6 cfu/ml i.p., drug once intravenous
Procedure, shortened: as §2

B1: PMC-SA1: Staphylococcus aureus pheromone AgrD I linked to C-terminus of allosteric colicin Ia′; SEQ ID NO. 13; plasmid pBHC-SA1 (protein)
chain: SDPVRITNPAAESLGYDSDGREIMGVDIYLNPPRVDVFKGTPPAWSSFGNKTIWGGNEWVDDSPTRSDIEKRDKEITAYKNTLSAQQKENENKRTEAGKRLSAAIAAREKDENTLKTLRAGNADAADITRQEFRLLQAELREYGFRTEIAGYDALRLHTESRMLFADADSLRISPREARSLIEQAEKRQKDAQNADKKAADMLAEYERRKGILDTRLSELEKNGGAALAVLDAQQARLLGQQTRNDRAISEARNKLSSVTESLNTARNALTRAEQQLTQQKNTPDGKTIVSPEKFPGRSSTNHSIVVSGDPRFAGTIKITTSAVIDNRANLNYLLSHSGLDYKRNILNDRNPVVTEDVEGDKKIYNAEVAEWDKLRQRLLDARNKITSAESAVNSARNNLSARTNEQKHANDALNALLKEKENIRNQLSGINQKIAEEKRKQDELKATKDAINFTTEFLKSVSEKYGAKAEQLAREMAGQAKGKKIRNVEEALKTYEKYRADINKKINAKDRAAIAAALESVKLSDISSNLNRFSRGLGYAGKFTSLADWITEFGKAVRTENWRPLFVKTETIIAGNAATALVALVFSILTGSALGIIGYGLLMAVTGALIDESLVEKANKFWGIYSTCDFIM
modifications: The peptide of PMC-SA1
notes: Staphylococcus aureus pheromone AgrD I linked to C-terminus of allosteric colicin Ia′; 13; plasmid pBHC-SA1
Question: For B1, which MIC [1] is on record?
Answer: 0.5 µg/mL

Question: What about the MIC (E. coli 02-1-65 [2]) of the same molecule?
Answer: 1 µg/mL

Question: And the MIC [3]?
Answer: 0.5 µg/mL

Question: What about the MIC50 [4] of the same molecule?
Answer: 0.5 µg/mL

Question: What about the MIC90 [4] of the same molecule?
Answer: 16 µg/mL

Question: What about the MIC50 [5] of the same molecule?
Answer: >64 µg/mL

Question: What about the MIC90 [5] of the same molecule?
Answer: >64 µg/mL

Question: What about the MIC50 (Baumanii) of the same molecule?
Answer: 32 µg/mL

Question: And the MIC90 (Baumanii)?
Answer: >64 µg/mL

Question: What about the MIC50 ([6]; MRSA clinical strains) of the same molecule?
Answer: 8 to 16 µg/mL

Question: And the MIC90 ([6]; MRSA clinical strains)?
Answer: >16 µg/mL

Question: And the “Scope of MIC” value ([6]; MRSA clinical strains)?
Answer: <0.25 to 64 µg/mL

Question: What about the “in vitro antibacterial activity relative to oxacillin, standardized by same drug molecular number in unit volume” value ([6]; Staphylococcus aureus, MRSA) of the same molecule?
Answer: 1,240 times

Question: And the “in vitro antibacterial activity relative to vancomycin, standardized by same drug molecular number in unit volume” value ([6]; Staphylococcus aureus, MRSA)?
Answer: three

Question: What about the MIC50 (E. coli) of the same molecule?
Answer: 16 µg/mL

Question: What about the MIC90 (E. coli) of the same molecule?
Answer: >32 µg/mL

Question: And the MIC50 [7]?
Answer: 1 µg/mL

Question: And the MIC90 [7]?
Answer: 32 µg/mL

Question: What about the “Scope of MIC” value [7] of the same molecule?
Answer: 0.25 to 64 µg/mL

Question: What about the MIC (Enterococcus ATCC 700802 [8]) of the same molecule?
Answer: 16 µg/mL

Question: What about the “growth of Pseudomonas aeruginosa (bacteria growth curve)” value [9] of the same molecule?
Answer: can not be effectively restrained

Question: What about the “antibiosis effect relative to oxacillin (by molecular weight and concentration)” value ([10]; 10 μg/ml PMC-SA1 vs 500 μg/ml oxacillin) of the same molecule?
Answer: about eight thousand

Question: What about the “bactericidal effect, bacterial appearance under transmission electron microscope” value ([10]; PMC-SA1 10 μg/ml, 0.5 hours) of the same molecule?
Answer: bacterium were ruptured, the contents were leaked out; also recorded: the bacterium ruptured and leaked out its contents; also recorded: could kill methicillin-resistant Staphylococcus aureus effectively

Question: What about the ED50 [11] of the same molecule?
Answer: 10.35 mg/kg

Question: And the ED50 (E. coli 02-1-65 [12])?
Answer: 3.78 mg/kg

Question: What about the ED50 ([13]; mice, infected with 6.5 × 10^5 cfu/ml i.p., drug once intravenous) of the same molecule?
Answer: 4.12 mg/kg

Question: And the “treatment effects on methicillin-resistant Staphylococcus aureus infection in vivo compared with vancomycin” value ([13]; survival rate of mice, three dosage groups)?
Answer: far better treatment effects

Question: And the ED50 (Enterococcus ATCC 700802 [14])?
Answer: 18.2 mg/kg
